# Measurements from patent US5912183A, “Peptide inhibitors of mitogenesis and motogenesis” (Pharmacia & Upjohn S.p.A., priority 1993, dated 1999).
# Residues, ends and D or L forms follow the SMILES beside them.
# How the values were obtained:
# [1] = target: T1, GST-SH2 domain of Shc (Homo sapiens, UniProt P29353); assay: BIAcore binding of Shc SH2 domain to immobilised phosphopeptides; conditions: biosensor; for Affinity constant, ratio between dissociation rate (Kdiss) and association rate constants (Kass): Shc GST-SH2; for Binding of Shc SH2 domain to immobilised phosphopeptide: avidin-immobilized biotinylated phosphopeptide
# T1 construct: using the Shc SH2 domain, expressed in bacteria as a GST-fusion protein; made in house; host or cells: bacteria
# T1 sequence (P29353 488-579 limits assumed): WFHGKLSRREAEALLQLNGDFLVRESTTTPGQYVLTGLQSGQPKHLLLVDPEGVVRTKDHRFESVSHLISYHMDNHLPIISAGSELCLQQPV
# Description: FIG. 13. […] The same concentration of Shc-SH2 was injected over two biosensor surfaces on which two phosphopeptides had been immobilised. Y1356P is derived from the sequence VNATY^1356 VNVK (SEQ. ID NO: 28) of the receptor tail; Y317P is derived from the sequence DDPSY^317 VNVQ (SEQ. ID NO: 27). Note that both peptides contain the same core (YVNV) but (SEQ. ID NO: 3) different upstream sequences. The initial rapid increase in the response is due to the "bulk effect" of the injected solution.
# In vitro binding studies using GST-fusion protein. The region of the Grb2 cDNA corresponding to its SH2 domain (from nucleotide position 256 to nucleotide position 551) was isolated using polymerase chain reaction (PCR) and cloned into the BamHI-EcoRI sites of the bacterial expression plasmid pGEX-2T (GST-Grb2). Cultures of bacteria expressing GST, GST-Grb2 or GST-Shc (Segatto et al., Oncogene 2105-2112 (1993)) were grown for 3-4 hours at 37° C. in LB medium containing 1 mM IPTG. Bacteria were centrifuged, resuspended in 1/100 volume of ice-cold PY buffer, without Triton™ and lysed by sonication. After adding Triton X-100 to 1%, lysates were clarified by centrifugation. Recombinant proteins were purified onto glutathione Sepharose™ (Pharmacia) and used as such for binding assays. For each reaction, about 5 μg of GST, GST-Grb2 or GST-Shc bound to glutathione Seharose was incubated for 2 hrs. at 4° C. with […] of appropriate cell lysate made in PY buffer. Protein complexes were washed 5 times in ice cold PY buffer, eluted and denatured by heating at 95° C. for 3 min in Laemmli buffer, resolved on SDS-PAGE and analyzed by immunoblot.
# The basic principles of operation as well as the methodology for obtaining kinetic measurements of SH2 domain interactions using the BIAcore instrument (Pharmacia) have been previously described in detail (Panayotou et al., Mol. Cell. Biol. 13: 3567-3576 (1993), Ponzetto et al., Mol. Cell. Biol. 13: 4600-4608 (1993)). Purified GST-SH2 domains or intact proteins were desalted in BIAcore running buffer (20 mM Hepes, pH 7.4, 150 mM NaCl, 3.4 mM EDTA, 0.005% Tween 20 and 4 mM DTT) and injected over avidin-immobilized, biotinylated phosphopeptides. The amount of phosphopeptides immobilized was normalized by measuring the binding of anti-phosphotyrosine antibodies. Association was measured over a range of protein concentrations and dissociation of bound material was allowed to occur either in buffer flow or upon injection of 20 μM competing, non-biotinylated phosphopetide. Peptide and protein concentrations were calculated by amino acid analysis on an Applied Biosystem amino acid analyzer.
# The direct interaction between the SH2 domain of Shc and phosphotyrosine Y^1349 or Y^1356 was confirmed by real-time Biosensor analysis (Panayotou et al., ibid; Felder et al., Mol. Cell. Biol. 13: 1449-1455 (1993)).
# The Shc sequence Y^317 VNV (SEQ. ID NO: 3) is identical to one of the two Shc binding sites present in the SF/HGF receptor (FIG. 8). […] The biosensor was used to compare binding of the Shc SH2 domain to the phosphopeptide DDPSY^317 VNVQ (SEQ. ID NO: 27), present on the Shc molecule, and to the phosphopeptide VNATY^1356 VNVK (SEQ. ID NO: 28), present on the SF/HGF receptor. […] Thus Shc-Shc association is not favoured in vivo, and the Shc phosphotyrosine residue Y^317 is available to bind other molecules, rather than to mediate the formation of concatamers.
# [2] = target: T2, binding of p85 to HGF/SF receptor (Bos taurus, UniProt P23727); assay: Competition of phosphopeptides with p85 for association with immobilized recombinant HGF/SF receptor (in vitro kinase assay readout); parameters: species or system human; conditions: phosphopeptide 10 μM; p85 from Sf9 lysates; FIG. 1
# T2 construct: made in house; host or cells: Sf9 insect cells (baculovirus), for both p85 and the receptor
# T2 sequence (P23727 whole entry): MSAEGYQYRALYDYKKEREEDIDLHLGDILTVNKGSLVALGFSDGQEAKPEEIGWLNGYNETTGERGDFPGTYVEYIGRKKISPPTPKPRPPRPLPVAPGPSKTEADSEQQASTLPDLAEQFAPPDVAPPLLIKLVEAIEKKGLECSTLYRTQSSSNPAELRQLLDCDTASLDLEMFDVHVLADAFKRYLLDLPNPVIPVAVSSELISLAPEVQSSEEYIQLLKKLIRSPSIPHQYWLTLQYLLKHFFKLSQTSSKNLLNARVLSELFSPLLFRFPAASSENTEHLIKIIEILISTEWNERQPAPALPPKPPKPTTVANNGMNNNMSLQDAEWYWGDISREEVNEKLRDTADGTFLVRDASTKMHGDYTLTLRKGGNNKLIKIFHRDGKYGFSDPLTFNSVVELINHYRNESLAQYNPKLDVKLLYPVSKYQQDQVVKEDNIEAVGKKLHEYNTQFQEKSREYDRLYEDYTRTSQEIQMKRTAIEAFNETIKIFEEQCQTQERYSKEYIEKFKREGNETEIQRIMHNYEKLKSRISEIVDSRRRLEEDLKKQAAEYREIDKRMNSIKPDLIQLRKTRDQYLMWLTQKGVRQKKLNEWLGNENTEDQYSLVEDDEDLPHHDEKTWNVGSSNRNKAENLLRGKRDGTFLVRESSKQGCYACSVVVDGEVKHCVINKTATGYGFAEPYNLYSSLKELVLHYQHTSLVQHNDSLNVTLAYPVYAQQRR
# Description: FIG. 1. Inhibition of binding of p85 to HGF/SF receptor by tyrosine-phosphorylated peptides. Recombinant HGF/SF receptor was purified by immunoprecipitation from baculovirus-infected Sf9 cells using a rabbit polyclonal antiserum and phosphorylated with cold ATP. Lysates of Sf9 cells expressing p85 were pre-incubated with each of the phosphopeptides (10 μM). The lysates were then allowed to associate with immobilized recombinant HGF/SF receptors. Following association the complex was washed and receptor-bound p85 was detected by an in vitro kinase assay, as described in Materials and Methods of Example 4. The phosphopeptides are identified by the number of the amino terminal tyrosine.
# FIG. 2. Inhibition of binding of p85 to HGF/SF receptor with different concentrations of tyrosine-phosphorylated peptides. The phosphopeptides which efficiently out-competed p85 binding to the HGF/SF receptor (FIG. 1) were used at increasing concentrations (10 nM, 100 nM, 1 μM from left to right) to define their relative affinities for p85. Conditions of the experiment were as in FIG. 1. Phosphopeptide 1365 was used as a negative control for p85 interaction.
# In vitro association experiments. Sf9 cells expressing the recombinant HGF/SF receptor (approximately 4×10^6 cells/point) were lysed 36 hours after infection in buffer A (10 mM Tris-HCl buffer pH 7.5, 10% glycerol, 1% Triton X-100, 150 mM NaCl, 5 mM EDTA), supplemented with 0.2 mM phenyl-methylsulfonyl fluoride, 1 μg/ml leupeptin, 0.1 TIU/ml aprotinin and 1 μg/ml pepstatin. Lysates were clarified at 15,000×g at 4° C. for 15 minutes and the supernatants immunoprecipitated after 2 hours incubation with anti-Met antibodies coupled to Protein A-Sepharose. Immunocomplexes were washed three times with buffer A, once with buffer B (10 mM Tris-HCl pH 7.4, 100 mM NaCl, 1 mM EDTA) and once with buffer C (25 mM 4-(2-hydroxyethyl)-1-piperazine-ethanesulfonic acid (HEPES) buffer pH 7.2, 100 mM NaCl, 5 mM MgCl2). Samples were pre-phosphorylated by incubation for 15 minutes at 25° C. in buffer C with 10 μM unlabelled ATP and then washed three times with cold buffer A supplemented with 1 mM sodium ortho-vanadate. Association between the immobilized receptor and the baculovirus-expressed p85 was carried out as previously described (Bardelli, A., et al., Oncogene 7: 1973-1978 (1992)). For the association experiments with the PI 3-kinase holoenzyme three days serum-starved A549 cells (approx. 2×10^6 cells/point) were used as a source of PI 3-kinase. A549 cells were Dounce-homogenized in MOPS buffer (20 mM 3-(N-morpholino)propanesulfonic acid) (pH 7.5), 1 mM MgCl2, 0.1 mM EDTA, 200 mM sucrose, 1 mM sodium ortho-vanadate), supplemented with 0.2 mM phenylmethylsulfonyl fluoride, 1 μg/ml leupeptin, 0.1 TIU/ml aprotinin and 1 μg/ml pepstatin. Homogenates were centrifuged at 100,000×g for 20 minutes at 4° C. When checking for the ability of phosphopeptides to block the association with the receptor, cell lysates were pre-incubated with the phosphopeptides for 1 hour at 4° C. prior to incubation with the immobilized recombinant HGF/SF receptor. Following association, immunocomplexes were washed three times with buffer A, twice with buffer D (0.5M LiCl, 100 mM Tris-HCl pH 7.6), and twice with buffer B.
# The presence of the p85 subunit of the PI 3-kinase in the receptor immunoprecipitate was determined by: i) labelling of the receptor and associated proteins with [γ-^32 P]ATP by in vitro kinase assay; ii) Western immunoblotting; iii) PI 3-kinase activity assay.
# In vitro kinase assay. Receptor-associated proteins were labelled in 20 μl of buffer C, in the presence of 10 μCi [γ-^32 P]ATP (specific activity 7,000 Ci/Mm; Amersham) at 25° C. for 15 minutes. The reaction was stopped by adding 1 ml of ice-cold Buffer A without protease inhibitors. Samples were washed three times with cold buffer A. The labelled immunocomplexes were eluted from Protein A-Sepharose in boiling Laemmli buffer. […]
Compound,"Affinity constant, ratio between dissociation rate (Kdiss) and association rate constants (Kass) [1]",Binding of Shc SH2 domain to immobilised phosphopeptide [1],Binding of Shc SH2 domain to immobilised phosphopeptide ([1]; listed as Y1356P),Inhibition of binding of p85 to HGF/SF receptor [2]
"H-Ile-Gly-Glu-His-Tyr*-Val-His-Val-Asn-OH (H-IGEHYVHVN-OH; not fully specified (residue 5); also: Tyr5 (Y*) may be phosphorylated or unphosphorylated, not settled) [IGEHY^1349* VHVN]",too high to be exactly determined,,,
"H-Val-Asn-Ala-Thr-Tyr*-Val-Asn-Val-Lys-OH (H-VNATYVNVK-OH; not fully specified (residue 5); also: Tyr5 (Y*) may be phosphorylated or unphosphorylated, not settled) [VNATY^1356* VNVK]",too high to be exactly determined,specifically bound,binds to the docking site of the SF/HGF receptor,
CC(C)C[C@H](NC(=O)[C@@H]1CCCN1C(=O)[C@H](CC(=O)O)NC(=O)[C@@H]1CCCN1C(=O)[C@H](CS)NC(=O)[C@@H](N)Cc1ccc(OP(=O)(O)O)cc1)C(=O)N[C@@H](Cc1ccc(O)cc1)C(=O)N[C@@H](CCC(=O)O)C(=O)O [H-Tyr*-Cys-Pro-Asp-Pro-Leu-Tyr-Glu-OH] (HELM PEPTIDE1{[N[C@@H](Cc1ccc(OP(=O)(O)O)cc1)C(=O)[*:2]].C.P.D.P.L.Y.E}$$$$V2.0),,,,only partially effective
